No end group written: not given here.

The target of the test is T1, His-tagged P3028 (human, also: His-tag, terminus and sequence not given here).
T1 construct: in solution at 0.5 ug/mL over the peptide cards; found with anti-His-tag antibody and rabbit anti-mouse peroxidase (rampo); also called PGE73; not shown: His-tag
T1 peptide: VFDEFKPLVEEPQNLIK
The test can be described thus: PEPSCAN chip ELISA, His-P3028 in solution. (ELISA stands for enzyme-linked immunosorbent assay.)
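Also: score is the raw OD at 405 nm from peroxidase colour with ABTS, imaged by CCD camera before and after staining, with wells showing air bubbles set to zero.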

As for KKLDTFQVKLSLFTER [SEQ ID NO 322], the “RAMPO Score” value came out at 511 rampo score.
Next, KKLDTFFVKYSLFTER [SEQ ID NO 344]: 382 rampo score.
Under KKLDTFFVKLSLMTER [SEQ ID NO 367] stands 1190 rampo score; under KKLDTFFVKLSLLTER [SEQ ID NO 366], 448 rampo score; under KKLDTFFVKLSLVTER [SEQ ID NO 374], 446 rampo score.
On to KKLDTFFVKLSIFTER [SEQ ID NO 352], for which the “RAMPO Score” value was found to be 456 rampo score.
Next, KKLDTFFVKNSLFTER [SEQ ID NO 337]: 365 rampo score; KKLDTFFVKLSLITER [SEQ ID NO 365]: 468 rampo score.
Next, KKLDTFFVKLSAFTER [SEQ ID NO 350]: 462 rampo score; KKLDTFFVKPSLFTER [SEQ ID NO 338]: 436 rampo score; KKLDTFFVKGSLFTER [SEQ ID NO 334]: 495 rampo score.
Under KKLDTFFLKLSLFTER [SEQ ID NO 328] stands 411 rampo score; under KKLDTFFVKLQLFTER [SEQ ID NO 348], 768 rampo score.
With KKLDTFFVKVSLFTER [SEQ ID NO 343], the “RAMPO Score” value was determined as 658 rampo score.
Next, KKLDTFFVKLSLFSER [SEQ ID NO 384]: 369 rampo score.
For the molecule KKLDTFFVKLSRFTER [SEQ ID NO 356], the “RAMPO Score” value amounted to 483 rampo score.
Next, KKLDTFFVKLSLFNER [SEQ ID NO 382]: 599 rampo score.
With KKLDTFFVKLSLFMER [SEQ ID NO 381], the “RAMPO Score” value came to 501 rampo score.
KKLDTFVVKLSLFTER [SEQ ID NO 325]: the “RAMPO Score” value turned out to be 527 rampo score.
With KKLDTFFVKLSLWTER [SEQ ID NO 375], the “RAMPO Score” value amounted to 430 rampo score.
Under KKLDTFFVKLSLRTER [SEQ ID NO 371] stands 502 rampo score; under KKLDTFFGKLSLFTER [SEQ ID NO 327], 379 rampo score; under KKLDTFFVKTSLFTER [SEQ ID NO 342], 399 rampo score.
Next, KKLDTFFVKLSLFFER [SEQ ID NO 376]: 348 rampo score.
With KKLDTFFVKLSLFIER [SEQ ID NO 379], the “RAMPO Score” value was 375 rampo score.
Turning to KKLDTFFVKQSLFTER [SEQ ID NO 339], the “RAMPO Score” value came to 470 rampo score.
Next, KKLDTFFVKLSLCTER [SEQ ID NO 362]: 400 rampo score; KKLDTFFVKLSSFTER [SEQ ID NO 357]: 478 rampo score; KKLDTFFVKLSLATER [SEQ ID NO 361]: 525 rampo score.
Next, KKLDTFFVKLSHFTER [SEQ ID NO 351]: 460 rampo score; KKLDTFFVKLSNFTER [SEQ ID NO 354]: 462 rampo score.
KKLDTFFVKLSLFGER [SEQ ID NO 377]: the “RAMPO Score” value is 343 rampo score.
Next, KKLDTFFVKLSLFHER [SEQ ID NO 378]: 463 rampo score; KKLDTFFVKLSWFTER [SEQ ID NO 360]: 409 rampo score; KKLDTFFVKMSLFTER [SEQ ID NO 336]: 460 rampo score.
In the case of KKLDTFFVKLNLFTER [SEQ ID NO 347], the “RAMPO Score” value was found to be 451 rampo score.
Next, KKLDTFFVKLSLGTER [SEQ ID NO 363]: 531 rampo score.
Under KKLDTFFPKLSLFTER [SEQ ID NO 329] stands 456 rampo score; under KKLDTFFVKLMLFTER [SEQ ID NO 346], 744 rampo score; under KKLDTFFVKLHLFTER [SEQ ID NO 345], 535 rampo score.
For the molecule KKLDTFFVKSSLFTER [SEQ ID NO 341], the “RAMPO Score” value turned out to be 351 rampo score.
As for KKLDTFFVKISLFTER [SEQ ID NO 335], the “RAMPO Score” value is 415 rampo score.
As for KKLDTFFVKLSLQTER [SEQ ID NO 370], the “RAMPO Score” value is 1140 rampo score.
For the molecule KKLDTFSVKLSLFTER [SEQ ID NO 323], the “RAMPO Score” value was determined as 700 rampo score.
As for KKLDTFFVKLSVFTER [SEQ ID NO 359], the “RAMPO Score” value worked out at 545 rampo score.
For KKLDTFFVKLSTFTER [SEQ ID NO 358], the “RAMPO Score” value turned out to be 437 rampo score.
For KKLDTFFVKLSLPTER [SEQ ID NO 369], the “RAMPO Score” value stood at 696 rampo score.
In the case of KKLDTFFVKLSQFTER [SEQ ID NO 355], the “RAMPO Score” value was 651 rampo score.
Next, KKLDTFFVKLSLFWER [SEQ ID NO 386]: 374 rampo score.
Next, KKLDTFFVKLSLFVER [SEQ ID NO 385]: 380 rampo score; KKLDTFTVKLSLFTER [SEQ ID NO 324]: 517 rampo score; KKLDTFFVKRSLFTER [SEQ ID NO 340]: 439 rampo score.
Consider KKLDTFFVKLSLSTER [SEQ ID NO 372], for which the “RAMPO Score” value was 635 rampo score.
For the molecule KKLDTFFVRLSLFTER [SEQ ID NO 331], the “RAMPO Score” value was 374 rampo score.
Regarding KKLDTFFRKLSLFTER [SEQ ID NO 330], the “RAMPO Score” value worked out at 365 rampo score.
Under KKLDTFFVKLSLFPER [SEQ ID NO 383] stands 551 rampo score; under KKLDTFFVKLSLFLER [SEQ ID NO 380], 360 rampo score; under KKLDTFFVKLSLTTER [SEQ ID NO 373], 494 rampo score.
In the case of KKLDTFFVKLSLHTER [SEQ ID NO 364], the “RAMPO Score” value came to 1050 rampo score.
On to KKLDTFFVKLTLFTER [SEQ ID NO 349], for which the “RAMPO Score” value was 520 rampo score.
Turning to KKLDTFFVKLSLNTER [SEQ ID NO 368], the “RAMPO Score” value came to 862 rampo score.
For the molecule KKLDTFFVKFSLFTER [SEQ ID NO 333], the “RAMPO Score” value is 403 rampo score.
Consider KKLDTFFVKASLFTER [SEQ ID NO 332], for which the “RAMPO Score” value amounted to 426 rampo score.
Next, KKLDTFFFKLSLFTER [SEQ ID NO 326]: 358 rampo score.
Next, KKLDTFFVKLSMFTER [SEQ ID NO 353]: 499 rampo score.

The record behind these values is patent publication US20170298096A1 (CANIMGUIDE THERAPEUTICS, published 2017).
